Read-outs that look alike come from different tables or passages of the source.

The target in test [1] is T1, Cathepsin B from bovine spleen (bovine, UniProt P07688 80-332). The test can be described thus: cell-based or functional assay.
Test [2] deals with T1, Cathepsin B from bovine spleen. The test can be described thus: cell-based or functional assay. This is another data set of the same source.

Regarding H-Thr-Asn-Arg-OH (also: MGO-modified, site not given here) [MGO-modified H-TNR-OH], the “Cathepsin B inhibition test, 2 mM peptide” value (shortened to “Cathepsin B inhibition test”) in test [1] is 91.9.

Consider Ac-Thr-Asn-Arg-OH (also: MGO-modified, site not given here) [MGO-modified Ac-TNR-OH], for which, in test [1], the “Cathepsin B inhibition test” value was found to be 91.7.

Take Ac-Ile-Asp-Arg-OH (also: MGO-modified, site not given here) [MGO-modified Ac-IDR-OH]: the “Cathepsin B inhibition test” value in test [1] came out at 81.8.

Ac-Val-Asn-Arg-OH (also: MGO-modified, site not given here) [MGO-modified Ac-VNR-OH]: the “Cathepsin B inhibition test” value in test [1] came to 68.5.

As for Ac-Thr-Asn-Arg-OH [Ac-TNR-OH], the “Cathepsin B inhibition test” value in test [1] was found to be 96.5.

Take Ac-Met-Asn-Arg-OH [Ac-MNR-OH]: in test [1], the “Cathepsin B inhibition test” value amounted to 101.

Ac-Met-Asp-Arg-OH [Ac-MDR-OH]: the “Cathepsin B inhibition test” value in test [1] amounted to 107.

As to Ac-Leu-Gln-Lys-OH [Ac-LQK-OH], the “Cathepsin B inhibition test” value in test [1] stood at 102.

On to H-Met-Asn-Arg-OH (also: MGO-modified, site not given here) [MGO-modified H-MNR-OH], for which, in test [1], the “Cathepsin B inhibition test” value worked out at 78.6.

Regarding H-Ile-Asp-Arg-OH (also: MGO-modified, site not given here) [MGO-modified H-IDR-OH], the “Cathepsin B inhibition test” value in test [1] came out at 85.6.

On to Ac-Met-His-Arg-OH (also: MGO-modified, site not given here) [MGO-modified Ac-MHR-OH], for which the “Cathepsin B inhibition test” value in test [1] came to 90.1.

Take H-Phe-Asp-Arg-OH (also: MGO-modified, site not given here) [MGO-modified H-FDR-OH]: the “Cathepsin B inhibition test” value in test [2] came out at 71.2.

Ac-Leu-Gln-Lys-OH (also: MGO-modified, site not given here) [MGO-modified Ac-LQK-OH]: in test [1], the “Cathepsin B inhibition test” value amounted to 90.2.

For H-Met-Asp-Arg-OH [H-MDR-OH], in test [1], the “Cathepsin B inhibition test” value turned out to be 102.

As for Ac-Met-Asp-Arg-OH (also: MGO-modified, site not given here) [MGO-modified Ac-MDR-OH], the “Cathepsin B inhibition test” value in test [1] is 88.6.

Consider Ac-Met-Asp-Lys-OH (also: MGO-modified, site not given here) [MGO-modified Ac-MDK-OH], for which the “Cathepsin B inhibition test” value in test [1] was determined as 99.4.

Ac-Thr-Asp-Lys-OH (also: MGO-modified, site not given here) [MGO-modified Ac-TDK-OH]: the “Cathepsin B inhibition test” value in test [1] came out at 92.8.

Take Ac-Met-His-Arg-OH [Ac-MHR-OH]: the “Cathepsin B inhibition test” value in test [1] was 101.

Consider H-Leu-Gln-Lys-OH [H-LQK-OH], for which the “Cathepsin B inhibition test” value in test [1] amounted to 102.

Consider Ac-Val-Asn-Arg-OH [Ac-VNR-OH], for which the “Cathepsin B inhibition test” value in test [1] was 99.8.

Regarding H-Leu-Gln-Lys-OH (also: MGO-modified, site not given here) [MGO-modified H-LQK-OH], the “Cathepsin B inhibition test” value in test [1] amounted to 95.3.

On to H-Thr-Asn-Arg-OH [H-TNR-OH], for which the “Cathepsin B inhibition test” value in test [1] stood at 103.

As to H-Ile-Asp-Arg-OH [H-IDR-OH], the “Cathepsin B inhibition test” value in test [1] was determined as 98.

In the case of H-Met-Asp-Lys-OH [H-MDK-OH], the “Cathepsin B inhibition test” value in test [1] worked out at 104.

Take H-Thr-Asp-Lys-OH (also: MGO-modified, site not given here) [MGO-modified H-TDK-OH]: the “Cathepsin B inhibition test” value in test [1] amounted to 87.5.

As to H-Val-Asn-Arg-OH (also: MGO-modified, site not given here) [MGO-modified H-VNR-OH], in test [1], the “Cathepsin B inhibition test” value stood at 82.6.

On to Ac-Met-Asn-Arg-OH (also: MGO-modified, site not given here) [MGO-modified Ac-MNR-OH], for which the “Cathepsin B inhibition test” value in test [1] was 86.9.

As for Ac-Thr-Asp-Lys-OH [Ac-TDK-OH], the “Cathepsin B inhibition test” value in test [1] is 101.

H-Met-Asp-Arg-OH (also: MGO-modified, site not given here) [MGO-modified H-MDR-OH]: the “Cathepsin B inhibition test” value in test [1] was 74.5.

As to H-Met-His-Arg-OH [H-MHR-OH], the “Cathepsin B inhibition test” value in test [1] came out at 96.8.

As for H-Met-Asp-Lys-OH (also: MGO-modified, site not given here) [MGO-modified H-MDK-OH], the “Cathepsin B inhibition test” value in test [1] worked out at 70.6.

In the case of H-Met-His-Arg-OH (also: MGO-modified, site not given here) [MGO-modified H-MHR-OH], the “Cathepsin B inhibition test” value in test [1] was found to be 80.7.

As for Ac-Ile-Asp-Arg-OH [Ac-IDR-OH], the “Cathepsin B inhibition test” value in test [1] was 93.5.

H-Val-Asn-Arg-OH [H-VNR-OH]: in test [1], the “Cathepsin B inhibition test” value is 97.8.

Ac-Met-Asp-Lys-OH [Ac-MDK-OH]: the “Cathepsin B inhibition test” value in test [1] was found to be 110.

In the case of H-Phe-Asp-Arg-OH [H-FDR-OH], the “Cathepsin B inhibition test” value in test [2] was found to be 175.

In the case of H-Thr-Asp-Lys-OH [H-TDK-OH], the “Cathepsin B inhibition test” value in test [1] is 103.

These data come from patent publication US20150337019A1 (MANUKAMED HOLDINGS LIMITED PARTNERSHIP, published 2015).
